The data set deals with eIF4B (UniProt P23588 1-611). Put plainly: fluorescence polarization; 2 mM ATP, 2 mM Mg2+; 20 mM HEPES/KOH pH 7.5, 100 mM KCl, 1 mM TCEP, 2 mM ATP, 2 mM MgCl2, 40 nM FAM-RNA, 60 min, 25 C; Kd values only in figures (one-site fit, n=3). The following applies: protein: recombinant. For orientation: In fluorescence polarisation assays a small probe gives low polarisation when free and higher when bound to something large.
eIF4B, sequence (P23588 whole entry): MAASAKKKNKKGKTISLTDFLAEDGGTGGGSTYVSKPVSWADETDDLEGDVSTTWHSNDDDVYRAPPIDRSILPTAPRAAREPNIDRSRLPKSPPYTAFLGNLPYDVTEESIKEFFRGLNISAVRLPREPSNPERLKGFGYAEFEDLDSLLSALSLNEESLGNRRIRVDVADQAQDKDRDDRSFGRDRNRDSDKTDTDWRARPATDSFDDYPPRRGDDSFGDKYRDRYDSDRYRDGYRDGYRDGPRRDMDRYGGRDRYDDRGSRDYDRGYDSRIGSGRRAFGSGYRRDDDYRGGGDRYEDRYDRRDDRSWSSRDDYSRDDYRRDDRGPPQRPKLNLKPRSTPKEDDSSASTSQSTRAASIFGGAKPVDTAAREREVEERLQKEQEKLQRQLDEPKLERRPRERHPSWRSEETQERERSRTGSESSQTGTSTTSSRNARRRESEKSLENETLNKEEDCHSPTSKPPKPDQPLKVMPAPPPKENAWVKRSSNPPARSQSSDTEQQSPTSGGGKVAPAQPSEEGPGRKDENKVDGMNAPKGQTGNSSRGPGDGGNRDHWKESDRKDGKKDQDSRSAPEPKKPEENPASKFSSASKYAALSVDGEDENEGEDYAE

For UCCUUUGGCCAACUGCUUAGAAGCCCAACACAACCCAAA (ssRNA) [His1-ssRNA], the binding result is “binds”.
GCUGCACUCUUAUUUUCAUUUUCAACCAAA (ssRNA) [His4-ssRNA]: the binding result was “binds”.
Turning to GGCUGGCGUGAGGGUCUCCCUUGAUCUGAGAAUG (ssRNA) [CDK4-5'UTR], the binding result is “binds”.

B1: His1-FL (structured_RNA)
RNA: UCCUUUGGCCAACUGCUUAGAAGCCCAACACAACCCAAAGGCUCUUUUCAGAGCCACCCA
As to B1, the binding result (3' hairpin, 6-bp stem, 4-nt loop) is recorded as “binds”.

The values above are taken from publication PMC11514447, “Eukaryotic initiation factor 4B is a multi-functional RNA binding protein that regulates histone mRNAs”.
